Assay results: patent US20120156198A1 (Hoffmann-La Roche, published 2012)

Key:
[1] = biological target: T1, rhST-2/hFc (R&D Systems, Cat. No. 523-ST) (human, UniProt Q01638-2 19-328, limits assumed); assay: ELISA, hFc fusion protein captured on anti-human Fc
T1 construct: Bought; not shown: human Fc (hFc) of the commercial protein
T1 sequence (looked up): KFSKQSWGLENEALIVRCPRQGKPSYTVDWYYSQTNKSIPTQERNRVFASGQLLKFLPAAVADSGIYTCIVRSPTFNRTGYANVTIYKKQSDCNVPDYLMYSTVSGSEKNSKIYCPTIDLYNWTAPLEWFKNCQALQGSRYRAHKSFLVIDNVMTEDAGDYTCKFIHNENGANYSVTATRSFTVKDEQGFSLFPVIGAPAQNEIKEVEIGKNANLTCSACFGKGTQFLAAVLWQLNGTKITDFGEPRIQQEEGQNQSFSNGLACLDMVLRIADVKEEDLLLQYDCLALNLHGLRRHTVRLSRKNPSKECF
Description: (§1) The test was performed on 384-well microtiter plates (MaxiSorp™, Thermo Scientific Nunc, DK, Cat. No. 464718) at RT. After each incubation step, plates were washed 3 times with PBST. At the beginning, plates were coated with 0.5 μg/ml goat anti-human IgG Fc fragment (Jackson 1 mm. Res., US, Cat. No. 109-006-170) for at least 2 hours (h). Thereafter the wells were blocked with PBS supplemented with 0.2% Tween®-20 and 2% BSA (Roche Diagnostics GmbH, DE) for 1 h. 0.2 μg/ml of recombinant human IL-18Rα-Fc fusion protein (R&D Systems, UK, Cat. No. 816-LR) was captured on plate for 1 h. For testing the binding of antibodies to other proteins of the IL-1 receptor family 0.2 μg/ml of the following recombinant human proteins conjugated to human Fc (hFc) were captured: [0194] rhIL-1RI/hFc (R&D Systems, UK, Cat. No. 269-1R) [0195] rhIL-1sRII/hFc (R&D Systems, UK, Cat. No. 263-2R) [0196] rhIL-1R3/hFc (R&D Systems, UK, Cat. No. 676-CP) [0197] rhIL-2Rα/hFc (R&D Systems, UK, Cat. No. 1020-RL) [0198] rhIL-7Rα/hFc (R&D Systems, UK, Cat. No. 306-IR) [0199] rhIL-15R/hFc (R&D Systems, UK, Cat. No. 147-IR) [0200] rhST-2/hFc (R&D Systems, UK, Cat. No. 523-ST)
(§2) After washing the plate, dilutions of purified antibodies in PBS with 0.05% BSA and 0.2% Tween®-20 were incubated with the receptor proteins for 1 h. Binding of antibodies was detected with 1:2000 diluted horseradish peroxidase (HRP)-conjugates of anti-mouse IgG (GE Healthcare, UK, Cat. No. NA9310V). After 1 h the plates were washed 6 times with PBST and developed with freshly prepared BM Blue® POD substrate solution (BM Blue®: 3,3″-5,5″-Tetramethylbenzidine, Roche Diagnostics GmbH, DE, Cat. No. 11484281001) for 30 minutes at RT. Absorbance was measured at 370 nm. The values were corrected for the control without antibody.

[2] = biological target: T2, rhIL-2Rα/hFc (R&D Systems, Cat. No. 1020-RL) (human, UniProt P01589 22-213); assay: as above
T2 construct: Bought; not shown: human Fc (hFc) of the commercial protein
T2 sequence (looked up): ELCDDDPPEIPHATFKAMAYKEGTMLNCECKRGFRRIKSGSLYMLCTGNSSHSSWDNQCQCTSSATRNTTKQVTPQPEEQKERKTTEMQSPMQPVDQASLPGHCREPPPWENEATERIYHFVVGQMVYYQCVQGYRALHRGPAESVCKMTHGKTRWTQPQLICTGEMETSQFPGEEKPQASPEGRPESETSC
Description: as §1, §2

B1: Mab 2D11 (antibody, V domains shown)
VH: QVQLQQPGAELVKPGASVKMSCKASDYTFTSNWMHWVKQRPGQGLEWIGTIDPSDSYTYYNQKFKGKATLTVDTSSSTAYMHLSSLTSEDSAVYYCTTSGDYDADRYFDVWGAGTTVTVSS
VL: DIVLTQSPASLGVSLGQRATISCRASKSVSTSGDSYMHWYQQKPGQSPKLLIYLASNLESGVPARFSGSGSGTDFTLNIHPVEEEDAATYYCQQSRELPLSFGAGTKLELK
notes: Monoclonal antibody from immunized NMRI mice; detected with anti-mouse IgG1-PE / anti-mouse IgG; also called F20.2D11
absorbance at 370 nm (corrected for the control without antibody) [1]: 0.02
absorbance at 370 nm (corrected for the control without antibody) [2]: 0.02
